Numbering of substitutions follows the chain as printed.
B1: VRDN-03047 (antibody, V domains shown)
VH: QVELVESGGGVVQPGRSQRLSCAASGFTFSSYGMHWVRQAPGKGLEWVAIIWFDGSSTYYADSVRGRFTISRDNSKNTLYLQMNSLRAEDTAVYFCARELGRRYFDLWGRGTLVSVSS
VL: EIVLTQSPATLSLSPGERATLSCRASQSVSSYHAWYQQKPGQAPRLLIYDASKRATGIPARFSGSGSGTDFTLTISSLEPEDFAVYYCQQRSKWPPWTFGQGTKVESK
B2: VRDN-03055 (antibody, V domains shown)
VH: B1 VH
VL: B1 VL with H33L, T56H
B3: VRDN-03051 (antibody, V domains shown)
VH: B1 VH
VL: B1 VL with H33L, S52H
B4: VRDN-03053 (antibody, V domains shown)
VH: B1 VH
VL: B1 VL with H33L, R54H
B5: VRDN-03049 (antibody, V domains shown)
VH: B1 VH
VL: B1 VL with H33L, D50H
B6: VRDN-03099 (antibody, V domains shown)
VH: B1 VH with E3Q, Q18L, G33S, T58K, A61V, R65K, F95Y, L107I, S115T
VL: B1 VL with S28G, H33L, D50G, K53T, K93R, V105L, S107I
B7: VRDN-03050 (antibody, V domains shown)
VH: B1 VH
VL: B1 VL with H33L, A51H
B8: VRDN-03100 (second entry of that label; VH and VL pair SEQ ID NO: 223) (antibody, V domains shown)
VH: B1 VH with E3Q, Q18L, G33S, T58K, A61P, D62G, R65K, F95Y, L107I, S115T
VL: B1 VL with S28G, H33L, D50G, K53T, K93R, V105L, S107I
B9: VRDN-03098 (antibody, V domains shown)
VH: B1 VH with E3Q, Q18L, G33S, T58K, R65K, F95Y, L107I, S115T
VL: B1 VL with S28G, H33L, D50G, K53T, K93R, V105L, S107I
B10: VRDN-03101 (antibody, V domains shown)
VH: B1 VH with E3Q, Q18L, S31D, G33T, T58K, R65K, F95Y, L107I, S115T
VL: B1 VL with S28G, H33L, D50G, K53T, K93R, V105L, S107I
B11: VRDN-03054 (antibody, V domains shown)
VH: B1 VH
VL: B1 VL with H33L, A55H

These binders were tested against Recombinant human his-tagged IGF 1R extracellular domain protein (human) (UniProt P08069) (assay: SPR, captured antibody, pH 7.4).

First: B1
Second: B2
The Kd of the first is 1.5-fold higher: 2.95 nM for the first, 1.92 nM for the second. The second binds more tightly here.

B3 and B4 are within 1.5-fold of each other in Kd: 1.86 nM for the first, 1.79 nM for the second.

B5 and B6 are within 1.5-fold of each other in Kd: 1.56 nM for the first, 2.18 nM for the second.

Compared with B7, B8 is 2.7-fold higher in Kd: 2.03 nM for the first, 5.52 nM for the second. The first binds more tightly here.

Compared with B9, B10 is 2.6-fold lower in Kd: 2.05 nM for the first, 0.785 nM for the second. The second binds more tightly here.

Work on B11 yielded a Kd of 1.11 nM.

Compared with B1, B2 is 1.5-fold lower in koff: 0.000282 s⁻¹ for the first, 0.000188 s⁻¹ for the second.

B3 and B4 are within 1.5-fold of each other in koff: 0.000203 s⁻¹ for the first, 0.000188 s⁻¹ for the second.

B5 and B6 are within 1.5-fold of each other in koff: 0.000183 s⁻¹ for the first, 0.000139 s⁻¹ for the second.

Compared with B7, B8 is 6.4-fold higher in koff: 0.00021 s⁻¹ for the first, 0.00134 s⁻¹ for the second.

First: B9
Second: B10
The koff of the first is 1.9-fold higher: 0.000135 s⁻¹ for the first, 7.02e-05 s⁻¹ for the second.

B11 was tested, and the koff was 0.000104 s⁻¹.

B1 and B2 are within 1.5-fold of each other in kon: 95700 M⁻¹ s⁻¹ for the first, 97700 M⁻¹ s⁻¹ for the second.

B3 and B4 are within 1.5-fold of each other in kon: 110000 M⁻¹ s⁻¹ for the first, 105000 M⁻¹ s⁻¹ for the second.

Compared with B5, B6 is 1.8-fold lower in kon: 117000 M⁻¹ s⁻¹ for the first, 63700 M⁻¹ s⁻¹ for the second.

Compared with B7, B8 is 2.4-fold higher in kon: 103000 M⁻¹ s⁻¹ for the first, 244000 M⁻¹ s⁻¹ for the second.

B9 and B10 are within 1.5-fold of each other in kon: 65900 M⁻¹ s⁻¹ for the first, 89300 M⁻¹ s⁻¹ for the second.

B11 showed a kon of 93500 M⁻¹ s⁻¹.

These binders were tested against Recombinant human his-tagged IGF 1R extracellular domain protein (human) (UniProt P08069) (assay: SPR, captured antibody, dissociation at pH 6).

First: B1
Second: B2
The Kd of the first is 2.3-fold higher: 3.77 nM for the first, 1.61 nM for the second. The second binds more tightly here.

B3 and B4 are within 1.5-fold of each other in Kd: 2.12 nM for the first, 1.67 nM for the second.

Compared with B5, B6 is 2-fold lower in Kd: 2.7 nM for the first, 1.34 nM for the second.

B7 and B8 are within 1.5-fold of each other in Kd: 2.25 nM for the first, 1.69 nM for the second.

B9 and B10 are within 1.5-fold of each other in Kd: 1.24 nM for the first, 1.23 nM for the second.

Binder B11 has a Kd of 0.866 nM.

Going from B1 to B2, the koff falls from 0.000294 s⁻¹ to 0.00014 s⁻¹ (2.1-fold).

B3 and B4 are within 1.5-fold of each other in koff: 0.000162 s⁻¹ for the first, 0.00016 s⁻¹ for the second.

B5 and B6 are within 1.5-fold of each other in koff: 0.000201 s⁻¹ for the first, 0.000296 s⁻¹ for the second.

Compared with B7, B8 is 6.3-fold higher in koff: 0.00017 s⁻¹ for the first, 0.00107 s⁻¹ for the second.

B9 and B10 are within 1.5-fold of each other in koff: 0.000306 s⁻¹ for the first, 0.000268 s⁻¹ for the second.

Work on B11 yielded a koff of 8.18e-05 s⁻¹.

B1 and B2 are within 1.5-fold of each other in kon: 78100 M⁻¹ s⁻¹ for the first, 87000 M⁻¹ s⁻¹ for the second.

B3 and B4 are within 1.5-fold of each other in kon: 76200 M⁻¹ s⁻¹ for the first, 95500 M⁻¹ s⁻¹ for the second.

First: B5
Second: B6
The kon of the first is 3-fold lower: 74300 M⁻¹ s⁻¹ for the first, 221000 M⁻¹ s⁻¹ for the second.

First: B7
Second: B8
The kon of the first is 8.3-fold lower: 75800 M⁻¹ s⁻¹ for the first, 630000 M⁻¹ s⁻¹ for the second.

B9 and B10 are within 1.5-fold of each other in kon: 247000 M⁻¹ s⁻¹ for the first, 219000 M⁻¹ s⁻¹ for the second.

B11 showed a kon of 94500 M⁻¹ s⁻¹.
